Measured values published in article PMC10397247.
Values belong to the binder of their own block, whether it stands above or below them.

Assays:
P1-AA-1HGe-R = target: T1, P1-AA-1HGe-R; experiment: two-hybrid library CCmax; conditions: mean of both orientations;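 note: natural log of median RNA to DNA barcode read ratio; higher means stronger binding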
T1 chain: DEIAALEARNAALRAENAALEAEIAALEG

P1-AA-1HGe-W = target: T2, P1-AA-1HGe-W; experiment: two-hybrid library CCmax; conditions: mean of both orientations;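 note: natural log of median RNA to DNA barcode read ratio; higher means stronger binding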
T2 chain: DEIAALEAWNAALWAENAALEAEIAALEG

4H3365-AA = target: T3, 4H3365-AA; experiment: two-hybrid library CCmax; conditions: mean of both orientations;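 note: natural log of median RNA to DNA barcode read ratio; higher means stronger binding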
T3 chain: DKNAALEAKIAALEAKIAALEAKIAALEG

P1-AA-1HGe-A = target: T4, P1-AA-1HGe-A; experiment: two-hybrid library CCmax; conditions: mean of both orientations;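 note: natural log of median RNA to DNA barcode read ratio; higher means stronger binding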
T4 chain: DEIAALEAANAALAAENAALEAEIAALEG

4H535-AA = target: T5, 4H535-AA; experiment: two-hybrid library CCmax; conditions: mean of both orientations;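 note: natural log of median RNA to DNA barcode read ratio; higher means stronger binding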
T5 chain: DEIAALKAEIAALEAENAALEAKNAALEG

4H486-AA = target: T6, 4H486-AA; experiment: two-hybrid library CCmax; conditions: mean of both orientations;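 note: natural log of median RNA to DNA barcode read ratio; higher means stronger binding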
T6 chain: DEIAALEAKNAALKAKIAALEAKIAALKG

GCN2_T = experiment: two-hybrid library CCmax
4H58-AA = target: T7, 4H58-AA; experiment: two-hybrid library CCmax; conditions: mean of both orientations
T7 chain: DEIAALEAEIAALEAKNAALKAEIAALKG

4H3705-AA = target: T8, 4H3705-AA; experiment: two-hybrid library CCmax; conditions: mean of both orientations
T8 chain: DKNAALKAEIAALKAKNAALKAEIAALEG

4H895-AA = target: T9, 4H895-AA; experiment: two-hybrid library CCmax; conditions: mean of both orientations
T9 chain: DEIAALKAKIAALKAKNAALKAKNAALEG

4H3782-AA = target: T10, 4H3782-AA; experiment: two-hybrid library CCmax; conditions: mean of both orientations
T10 chain: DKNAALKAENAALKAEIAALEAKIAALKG

P1-AA-1HGe-Y = target: T11, P1-AA-1HGe-Y; experiment: two-hybrid library CCmax; conditions: mean of both orientations
T11 chain: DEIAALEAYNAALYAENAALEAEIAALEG

4H3651-AA = target: T12, 4H3651-AA; experiment: two-hybrid library CCmax; conditions: mean of both orientations
T12 chain: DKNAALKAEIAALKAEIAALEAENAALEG

4H355-AA = target: T13, 4H355-AA; experiment: two-hybrid library CCmax; conditions: mean of both orientations
T13 chain: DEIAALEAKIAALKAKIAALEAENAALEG

4H_BCR = target: T14, 4H_BCR; experiment: two-hybrid library CCmax; conditions: mean of both orientations
T14 chain: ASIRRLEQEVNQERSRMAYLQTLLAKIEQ

4H_APH = target: T15, 4H_APH; experiment: two-hybrid library CCmax; conditions: mean of both orientations
T15 chain: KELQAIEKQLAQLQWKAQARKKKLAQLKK

P1-AA-1HGe-S = target: T16, P1-AA-1HGe-S; experiment: two-hybrid library CCmax; conditions: mean of both orientations
T16 chain: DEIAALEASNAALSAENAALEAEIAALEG

4H465-AA = target: T17, 4H465-AA; experiment: two-hybrid library CCmax; conditions: mean of both orientations
T17 chain: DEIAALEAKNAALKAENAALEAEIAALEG

4H2750-AA = target: T18, 4H2750-AA; experiment: two-hybrid library CCmax
T18 chain: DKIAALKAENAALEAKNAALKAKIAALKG

4H3020-AA = target: T19, 4H3020-AA; experiment: two-hybrid library CCmax; conditions: mean of both orientations
T19 chain: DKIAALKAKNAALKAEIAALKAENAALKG

4H2898-AA = target: T20, 4H2898-AA; experiment: two-hybrid library CCmax; conditions: mean of both orientations
T20 chain: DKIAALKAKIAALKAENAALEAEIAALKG

P1-AA = target: T21, P1-AA; experiment: two-hybrid library CCmax; conditions: mean of both orientations
T21 chain: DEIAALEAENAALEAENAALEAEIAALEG

4H_GCN4 = experiment: two-hybrid library CCmax; conditions: mean of both orientations
4H_GCN4, sequence (chain, as listed by the source): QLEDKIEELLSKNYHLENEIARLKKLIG

P1-AA-1HGe-Q = target: T22, P1-AA-1HGe-Q; experiment: two-hybrid library CCmax; conditions: mean of both orientations
T22 chain: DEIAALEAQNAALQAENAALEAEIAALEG

P1-AA-1HGe-D = target: T23, P1-AA-1HGe-D; experiment: two-hybrid library CCmax; conditions: mean of both orientations
T23 chain: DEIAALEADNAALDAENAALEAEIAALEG

P1-AA-1HGe-H = target: T24, P1-AA-1HGe-H; experiment: two-hybrid library CCmax
T24 chain: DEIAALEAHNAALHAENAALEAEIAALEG

P1-AA-1HGe-T = target: T25, P1-AA-1HGe-T; experiment: two-hybrid library CCmax; conditions: mean of both orientations
T25 chain: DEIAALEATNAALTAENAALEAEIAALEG

P1-AA-1HGe-M = target: T26, P1-AA-1HGe-M; experiment: two-hybrid library CCmax; conditions: mean of both orientations
T26 chain: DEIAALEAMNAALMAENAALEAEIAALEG

O13-bH = target: T27, O13-bH; experiment: two-hybrid library CCNG1
T27 chain: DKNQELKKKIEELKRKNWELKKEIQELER

O4-bH = target: T28, O4-bH; experiment: two-hybrid library CCNG1
T28 chain: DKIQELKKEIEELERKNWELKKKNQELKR

O1-bH = target: T29, O1-bH; experiment: two-hybrid library CCNG1
T29 chain: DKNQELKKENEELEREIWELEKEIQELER

O9-bH = target: T30, O9-bH; experiment: two-hybrid library CCNG1
T30 chain: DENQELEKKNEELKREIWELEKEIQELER

O6-bH = target: T31, O6-bH; experiment: two-hybrid library CCNG1
T31 chain: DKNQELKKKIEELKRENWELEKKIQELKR

O2-bH = target: T32, O2-bH; experiment: two-hybrid library CCNG1
T32 chain: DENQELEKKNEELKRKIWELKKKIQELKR

O16-bH = target: T33, O16-bH; experiment: two-hybrid library CCNG1
T33 chain: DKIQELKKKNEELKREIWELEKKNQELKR

O11-bH = target: T34, O11-bH; experiment: two-hybrid library CCNG1
T34 chain: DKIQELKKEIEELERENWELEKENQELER

O10-bH = target: T35, O10-bH; experiment: two-hybrid library CCNG1
T35 chain: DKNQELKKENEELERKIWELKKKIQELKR

O8-bH = target: T36, O8-bH; experiment: two-hybrid library CCNG1
T36 chain: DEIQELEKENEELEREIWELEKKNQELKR

O5-bH = target: T37, O5-bH; experiment: two-hybrid library CCNG1
T37 chain: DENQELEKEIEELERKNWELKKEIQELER

O14-bH = target: T38, O14-bH; experiment: two-hybrid library CCNG1
T38 chain: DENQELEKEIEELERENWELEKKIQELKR

O12-bH = target: T39, O12-bH; experiment: two-hybrid library CCNG1
T39 chain: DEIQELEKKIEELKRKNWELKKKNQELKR

O15-bH = target: T40, O15-bH; experiment: two-hybrid library CCNG1
T40 chain: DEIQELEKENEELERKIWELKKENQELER

O7-bH = target: T41, O7-bH; experiment: two-hybrid library CCNG1
T41 chain: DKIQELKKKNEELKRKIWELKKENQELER

O3-bH = target: T42, O3-bH; experiment: two-hybrid library CCNG1
T42 chain: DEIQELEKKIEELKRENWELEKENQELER

Core_IINI-es_KEEE = target: T43, Core_IINI-es_KEEE; experiment: two-hybrid library CCmax; conditions: mean of both orientations
T43 chain: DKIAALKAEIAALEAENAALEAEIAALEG

Core_INNN-es_KKEE = target: T44, Core_INNN-es_KKEE; experiment: two-hybrid library CCmax; conditions: mean of both orientations
T44 chain: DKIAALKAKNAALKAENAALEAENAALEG

- interaction score (Core_IINI-es_KEEE): 2.08
Binder: DEIAALEAKIAALKAKNAALKAKIAALKG [Core_IINI-es_EKKK]

- interaction score (Core_INNN-es_KKEE): 1.67
Binder: DEIAALEAENAALEAKNAALKAKNAALKG [Core_INNN-es_EEKK]

The remaining lines, values behind:

Binder: DKIAALKAENAALEAKNAALKAKIAALKG [4H2750-AA]
- interaction score (P1-AA-1HGe-R): 2.26
- interaction score (P1-AA-1HGe-W): 2.15
- interaction score (4H3365-AA): -1.78
- interaction score (P1-AA-1HGe-A): 2.11
- interaction score (4H535-AA): -1.08
- interaction score (4H486-AA): 1.13
- interaction score (GCN2_T): -1.81
- interaction score (4H58-AA): -0.465
- interaction score (4H3705-AA): -0.91
- interaction score (4H895-AA): -1.79
- interaction score (4H3782-AA): -0.13
- interaction score (P1-AA-1HGe-Y): 2.03
- interaction score (4H3651-AA): -1.22
- interaction score (4H355-AA): -0.643
- interaction score (4H_BCR): -1.7
- interaction score (4H_APH): -2.38
- interaction score (P1-AA-1HGe-S): 1.86
- interaction score (4H465-AA): 2.28
- interaction score (4H2750-AA): -1.55
- interaction score (4H3020-AA): -1.5
- interaction score (4H2898-AA): 1.97
- interaction score (P1-AA): 1.56
- interaction score (4H_GCN4): -1.33
- interaction score (P1-AA-1HGe-Q): 2.33
- interaction score (P1-AA-1HGe-D): 2.05
- interaction score (P1-AA-1HGe-H): 1.92
- interaction score (P1-AA-1HGe-T): 2.06
- interaction score (P1-AA-1HGe-M): 2.44

Binder: DKNQELKKENEELEREIWELEKEIQELER [O1-bH]
- interaction score (O13-bH): 0.467
- interaction score (O4-bH): -1.15
- interaction score (O1-bH): -0.259
- interaction score (O9-bH): -2.31
- interaction score (O6-bH): -0.62
- interaction score (O2-bH): -0.214
- interaction score (O16-bH): -0.655
- interaction score (O11-bH): -0.522
- interaction score (O10-bH): 0.782
- interaction score (O8-bH): -2.35
- interaction score (O5-bH): -1.92
- interaction score (O14-bH): -0.549
- interaction score (O12-bH): -0.434
- interaction score (O15-bH): -0.695
- interaction score (O7-bH): -0.877
- interaction score (O3-bH): -1.49
